Consider 14 substances from patent publication US20100098730A1.

For experiment [1], the target named is human FcRn (heterodimer of an alpha chain and a β2-microglobulin subunit), soluble (human) (UniProt P55899). The experiment is described as follows: FcRn affinity at pH 6.0, as shown in FIG. 24 (BIAcore, human FcRn).
Experiment [2] has the same target. In words: SPR (BIAcore), soluble human FcRn injected over chip-coupled IgG, pH 6.0, 25 C, monovalent KD. In general terms: Surface plasmon resonance follows binding to a sensor surface in real time, without labels.
Experiment [3] has the same target. The experiment is described as follows: SPR, soluble human FcRn injected over IgG-coupled chip, monovalent KD, pH 6.0, 25 C.
Experiment [4] has the same target. The experiment is described as follows: SPR (BIAcore 3000), IgG injected over chip-coupled human FcRn, pH 6.0, 25 C; apparent (bivalent) KD estimated from the steady state curves of FIG. 1, Run 2.
Experiment [5] has the same target. The experiment is described as follows: SPR, bivalent IgG over human FcRn-coupled chip, steady state, apparent KD, pH 6.0, 25 C, second run (about two fold higher RU of FcRn).
Experiment [6] has the same target. In words: SPR, human FcRn; fold over wildtype, summarized from FIGS. 4 and 5.
Experiment [7] addresses cynomolgus monkey FcRn (cyno alpha chain and cyno β2-microglobulin), soluble (cynomolgus monkey) (UniProt Q8SPV9). In words: SPR (BIAcore 3000), soluble cyno FcRn injected over chip-coupled IgG, pH 6.0, 25 C.
Chain of UniProt Q8SPV9 (Q8SPV9 24-297 limits assumed, chain 1 of 2): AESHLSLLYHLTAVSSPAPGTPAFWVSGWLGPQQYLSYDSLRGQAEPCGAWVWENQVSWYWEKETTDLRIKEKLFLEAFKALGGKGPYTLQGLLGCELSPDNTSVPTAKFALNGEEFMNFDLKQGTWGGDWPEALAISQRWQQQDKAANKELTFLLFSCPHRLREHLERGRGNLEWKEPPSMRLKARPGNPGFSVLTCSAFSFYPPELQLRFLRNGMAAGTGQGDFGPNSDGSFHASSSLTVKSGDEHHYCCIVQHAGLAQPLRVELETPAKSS
Chain of UniProt Q8SPV9 (Q8SPW0 21-119 limits assumed, chain 2 of 2, further chain): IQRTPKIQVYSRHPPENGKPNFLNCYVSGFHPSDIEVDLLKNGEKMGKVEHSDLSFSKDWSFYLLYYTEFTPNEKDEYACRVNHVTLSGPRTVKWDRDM
Experiment [8] concerns the target human FcRn (heterodimer of an alpha chain and a β2-microglobulin subunit), soluble (human) (UniProt P55899). In words: SPR (BIAcore 3000), soluble human FcRn injected over chip-coupled IgG, pH 6.0, 25 C.
Experiment [9] addresses cynomolgus monkey FcRn (cyno alpha chain and cyno β2-microglobulin), soluble (cynomolgus monkey) (UniProt Q8SPV9). In words: SPR (BIAcore 3000), soluble cyno FcRn injected over chip-coupled IgG, pH 6.0, 25 C; monovalent KD (a) determined by ratio of koff to kon.
Experiment [10] deals with human FcRn (heterodimer of an alpha chain and a β2-microglobulin subunit), soluble (human) (UniProt P55899). The experiment is described as follows: SPR (BIAcore 3000), soluble human FcRn injected over chip-coupled IgG, pH 6.0, 25 C; monovalent KD (a) determined by ratio of koff to kon.
In experiment [11] the target is cynomolgus monkey FcRn (cyno alpha chain and cyno β2-microglobulin), soluble (cynomolgus monkey) (UniProt Q8SPV9). In words: SPR (BIAcore 3000), soluble cyno FcRn injected over chip-coupled IgG, pH 6.0, 25 C; monovalent KD (b) determined by fitting the steady state RU against concentration.
Experiment [12] has as its target human FcRn (heterodimer of an alpha chain and a β2-microglobulin subunit), soluble (human) (UniProt P55899). The experiment is described as follows: SPR (BIAcore 3000), soluble human FcRn injected over chip-coupled IgG, pH 6.0, 25 C; monovalent KD (b) determined by fitting the steady state RU against concentration.
The target is the same in experiment [13]. The experiment is described as follows: SPR (BIAcore 3000), IgG injected over chip-coupled human FcRn, pH 6.0, 25 C; apparent (bivalent) KD estimated from the steady state curves of FIG. 1, Run 1.

Chain of UniProt P55899 (P55899 24-297 limits assumed, chain 1 of 2): as the sequence (Q8SPV9 24-297 limits assumed, chain 1 of 2) above, with D39N, Q44E, S99G, G189S, N190S, M217L, T269S counted along it
Chain of UniProt P55899 (P61769 21-119 limits assumed, chain 2 of 2, further chain): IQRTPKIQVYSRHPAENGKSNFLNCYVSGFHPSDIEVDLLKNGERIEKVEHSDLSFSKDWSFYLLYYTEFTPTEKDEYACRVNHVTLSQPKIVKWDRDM

As for “IgG1 variant N434A of a different human antibody”, the fold higher FcRn affinity at pH 6.0 compared to the wildtype antibody in experiment [1] was 3 fold.

In experiment [2], N434A (antibody) came in with a Kd of 570 nM.

N434W (antibody): the Kd in experiment [2] turned out to be 44 nM.

In the case of “anti-HER2 (trastuzumab) IgG1 variant M252Y/V308P/N434Y (antibody)”, the fold improvement of affinity over the wild-type IgG1 in [3] stood at 450 fold. The substance also showed a Kd in [2] of 3.7 nM.

As to “anti-VEGF (Bevacizumab) IgG1 variant A378V (antibody)”, the Kd in [4] was 500 nM.

In the case of “anti-VEGF (Bevacizumab) IgG1 variant N434A (antibody)”, the Kd in [5] stood at 250 nM.

As a reminder, the koff is the first-order rate constant of dissociation. For orientation: kon means a measure of how fast the partners come together. Consider “anti-VEGF (Bevacizumab) IgG1 variant N434H (antibody)”, for which, in experiment [6], the Bivalent Affinity Fold increase at pH 6.0 was determined as 9 fold. This substance also had a Bivalent Affinity Fold increase at pH 7.4 in experiment [6] of 6 fold. The substance further returned a Monovalent Affinity Fold increase at pH 6.0 in [6] of 3 fold. In addition, the koff in experiment [7] came to 0.218 s⁻¹; in [8] it was 0.166 s⁻¹. For the same substance, the values for the kon in [7] and in experiment [8] were 480000 M⁻¹ s⁻¹ and 400000 M⁻¹ s⁻¹, respectively. The Kd was 450 nM in experiment [9]; 420 nM in [10]; 100 nM in experiment [4]; 470 nM in experiment [11]; 470 nM in experiment [12].

As for “anti-VEGF (Bevacizumab) IgG1 variant T307Q (antibody)”, the Kd in [4] was 250 nM.

As for “anti-VEGF (Bevacizumab) IgG1 variant T307Q/A378V (antibody)”, the Kd in experiment [4] was 90 nM.

Take “anti-VEGF (Bevacizumab) IgG1 variant T307Q/A378V/Y436I (antibody)”: the Kd in experiment [4] is 30 nM.

For the substance “anti-VEGF (Bevacizumab) IgG1 variant T307Q/E380A/N434S (antibody)”, the Kd in experiment [9] came to 153 nM; in experiment [10], 146 nM; in experiment [11] it was 160 nM; in experiment [12], 148 nM.

As for “anti-VEGF (Bevacizumab) IgG1 variant T307Q/N434A (antibody)”, the Kd is 240 nM in [9]; 240 nM in experiment [10]; 180 nM in [13]; 241 nM in [11]; 258 nM in experiment [12].

Regarding “anti-VEGF (Bevacizumab) IgG1 variant T307Q/Y436I (antibody)”, the Kd in experiment [4] is 70 nM.

As to “anti-VEGF (Bevacizumab) IgG1 variant V308P/N434A (antibody)”, the Kd in [9] was 66.6 nM; in experiment [10], 72 nM; in [4] it was 8 nM; in experiment [11] it was 69.9 nM; in experiment [12] it was 76 nM.
